# Experiments:
# hRET.mmh [1] = molecular target: T1, hRET.mmh (human, UniProt P07949 29-635, biotinylated in the ELISA of Example 4 (biot-hRET.mmh); not in the SPR of Example 3); test: SPR Biacore T200, mAb capture, 25 C
# T1 construct: also called biot-hRET.mmh; soluble monomeric human RET
# Description: (§1) Binding affinities and kinetic constants of human anti-RET antibodies were determined by surface plasmon resonance (Biacore T200) at […] (Tables 2-3). […] Binding equilibrium dissociation constants (KD) and dissociative half-lives (t_{1/2}) were calculated from the kinetic rate constants as: KD [M]=kd/kₐ; and t_{1/2}(min)=(ln2/(60*kd). Calculations were performed using BiacoreT200 evaluation software v1.0.
# [2] = molecular target: T2, Macaca fascicularis (mf) RET.mmh (Macaca fascicularis); test: SPR Biacore T200, mAb capture, 25 C
# T2 construct: also called monkey RET
# T2 chain: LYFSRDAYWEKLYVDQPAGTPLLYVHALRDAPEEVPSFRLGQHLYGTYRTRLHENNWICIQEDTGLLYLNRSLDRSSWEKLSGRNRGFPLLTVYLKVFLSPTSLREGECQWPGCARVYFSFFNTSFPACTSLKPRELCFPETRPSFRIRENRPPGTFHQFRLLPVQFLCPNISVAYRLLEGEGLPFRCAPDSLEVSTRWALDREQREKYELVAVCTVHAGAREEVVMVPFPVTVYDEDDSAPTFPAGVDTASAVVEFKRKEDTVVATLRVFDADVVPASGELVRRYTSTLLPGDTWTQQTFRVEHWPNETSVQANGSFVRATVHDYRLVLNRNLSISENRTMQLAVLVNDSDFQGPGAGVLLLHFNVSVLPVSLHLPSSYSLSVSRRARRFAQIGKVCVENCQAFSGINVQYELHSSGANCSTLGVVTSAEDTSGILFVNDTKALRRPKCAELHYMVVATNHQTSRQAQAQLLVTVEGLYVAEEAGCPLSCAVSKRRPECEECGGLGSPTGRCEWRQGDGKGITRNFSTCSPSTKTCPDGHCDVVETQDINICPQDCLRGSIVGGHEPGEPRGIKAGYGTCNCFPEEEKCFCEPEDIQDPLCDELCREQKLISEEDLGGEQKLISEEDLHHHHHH
# Description: as §1
# hRET.mFc [3] = molecular target: T3, hRET.mFc (human); test: SPR Biacore T200, mAb capture, 25 C
# T3 construct: also called dimeric human RET
# Description: as §1
# hRET.mmh [4] = molecular target: T1, hRET.mmh; test: SPR Biacore T200, mAb capture, 37 C
# Description: as §1
# [5] = molecular target: T2, Macaca fascicularis (mf) RET.mmh; test: SPR Biacore T200, mAb capture, 37 C
# Description: as §1
# hRET.mFc [6] = molecular target: T3, hRET.mFc; test: SPR Biacore T200, mAb capture, 37 C
# Description: as §1
# hRET.mmh [7] = molecular target: T1, hRET.mmh; test: competition sandwich ELISA: 1 nM biot-hRET.mmh + antibody, plate-coated GDNF/GFRα1 co-complex
# Description: The ability of anti-RET antibodies to block the binding of human RET to pre-complexed plate bound GDNF:GFRα1 was assessed using a competition sandwich ELISA.
# Antibody-RET mixtures were incubated for 1 hour at RT and then transferred to microtiter plates previously coated with the hGDNF/hGFRα1 co-complex. Binding was allowed to proceed for 1 hr at RT followed by extensive washing. […] Plates were read at 450 nm and data analysis used a sigmoidal dose-response model within Prism™ software.
# The absorbance values of the wells containing the highest concentration for each antibody were used to determine the blocking percent at maximum concentration antibody tested.
binder,measurement,setting,value
"H4H8087P (antibody, human IgG4, V domains shown, human IgG4 Fc (H4H prefix)) VH: QVQLVESGGGVVQPGRSLRLSCAASGFSFSSYGMHWVRQAPGKGLEWVAVMWYDGSNEYYADSVKGRFIISRDNSKSTLYLEMNSLRAEDTALYYCAREDWDEGYYYGMDVWGQGTTVTVSS VL: DIQMTQSPSSLFASVGDRVTITCRASQDIRYDLGWYQQKPGKAPKRLIYASSILESGVPSRFSGSGSGTEYTLTISTLQSEDFAIYYCLQHNSFPWTFGQGTKVEIK",Kd,hRET.mmh [1],0.27 nM
same,koff,hRET.mmh [1],0.000242 s⁻¹
same,kon,hRET.mmh [1],896000 M⁻¹ s⁻¹
same,t½,hRET.mmh [1],48 min
same,Kd,[2],0.424 nM
same,koff,[2],0.000272 s⁻¹
same,kon,[2],641000 M⁻¹ s⁻¹
same,t½,[2],42 min
same,Kd,hRET.mFc [3],0.087 nM
same,koff,hRET.mFc [3],0.000107 s⁻¹
same,kon,hRET.mFc [3],1.22e+06 M⁻¹ s⁻¹
same,t½,hRET.mFc [3],108 min
same,Kd,hRET.mmh [4],0.968 nM
same,koff,hRET.mmh [4],0.00123 s⁻¹
same,kon,hRET.mmh [4],1.27e+06 M⁻¹ s⁻¹
same,t½,hRET.mmh [4],9 min
same,Kd,[5],1.57 nM
same,koff,[5],0.00131 s⁻¹
same,kon,[5],836000 M⁻¹ s⁻¹
same,t½,[5],9 min
same,Kd,hRET.mFc [6],0.349 nM
same,koff,hRET.mFc [6],0.000441 s⁻¹
same,kon,hRET.mFc [6],1.26e+06 M⁻¹ s⁻¹
same,t½,hRET.mFc [6],26 min
same,% Max Blocking,hRET.mmh [7],92%
same,IC50,hRET.mmh [7],< 0.25 nM
"H4H8060P (antibody, human IgG4, V domains shown, human IgG4 Fc (H4H prefix)) VH: QVTLKESGPVLVKPTETLTLTCTVSGFSLSSARMGVSWIRQPPGKALEWLAHIFSTDEKSYSTSLKSRLSISKDTSLSQVVLIMTNMDPVDTATYYCARRTTMAPYYYYYGMDVWGHGTTVTVSS VL: AIQMTQSPASLSASVGDRVTITCRASQGIRNDLGWYQQKPGKAPKLLISAASSLQSGVPSRFSGSGSGTDFTLTISSLQPEDFATYYCLQDYKYPWTFGQGTKVEIK",Kd,hRET.mmh [1],0.409 nM
same,koff,hRET.mmh [1],0.000311 s⁻¹
same,kon,hRET.mmh [1],761000 M⁻¹ s⁻¹
same,t½,hRET.mmh [1],37 min
same,Kd,[2],0.523 nM
same,koff,[2],0.000393 s⁻¹
same,kon,[2],751000 M⁻¹ s⁻¹
same,t½,[2],29 min
same,Kd,hRET.mFc [3],0.179 nM
same,koff,hRET.mFc [3],0.000149 s⁻¹
same,kon,hRET.mFc [3],827000 M⁻¹ s⁻¹
same,t½,hRET.mFc [3],78 min
same,Kd,hRET.mmh [4],1.41 nM
same,koff,hRET.mmh [4],0.00157 s⁻¹
same,kon,hRET.mmh [4],1.11e+06 M⁻¹ s⁻¹
same,t½,hRET.mmh [4],7 min
same,Kd,[5],1.88 nM
same,koff,[5],0.00209 s⁻¹
same,kon,[5],1.12e+06 M⁻¹ s⁻¹
same,t½,[5],6 min
same,Kd,hRET.mFc [6],0.558 nM
same,koff,hRET.mFc [6],0.000592 s⁻¹
same,kon,hRET.mFc [6],1.06e+06 M⁻¹ s⁻¹
same,t½,hRET.mFc [6],19 min
same,% Max Blocking,hRET.mmh [7],95%
same,IC50,hRET.mmh [7],< 0.25 nM
"H4H8071P (antibody, human IgG4, V domains shown, human IgG4 Fc (H4H prefix)) VH: EVQLVESGGGLVQPGGSLRLSCAASGFTFTTYFMSWVRQAPGKGLEWVSGISGSGTSTFYVDSMKGRFTISRDNSKNTLYLQMNSLRVEDTAVYFCAKENTYGHFDFWGQGTLVTVSS VL: DIQLTQSPSFLSASVGDRVTITCWASQDISSHLAWYQQKPGKAPKVLIYDASTLQSGVPSRISGSGSGTEFTLTISSLQPEDFAAYYCQQLDGYPYTFGQGTKLEIK",Kd,hRET.mmh [1],1.41 nM
same,koff,hRET.mmh [1],0.000219 s⁻¹
same,kon,hRET.mmh [1],156000 M⁻¹ s⁻¹
same,t½,hRET.mmh [1],53 min
same,Kd,[2],2.32 nM
same,koff,[2],0.000272 s⁻¹
same,kon,[2],117000 M⁻¹ s⁻¹
same,t½,[2],43 min
same,Kd,hRET.mFc [3],0.89 nM
same,koff,hRET.mFc [3],0.000179 s⁻¹
same,kon,hRET.mFc [3],200000 M⁻¹ s⁻¹
same,t½,hRET.mFc [3],65 min
same,Kd,hRET.mmh [4],3.79 nM
same,koff,hRET.mmh [4],0.000896 s⁻¹
same,kon,hRET.mmh [4],236000 M⁻¹ s⁻¹
same,t½,hRET.mmh [4],13 min
same,Kd,[5],7.04 nM
same,koff,[5],0.00114 s⁻¹
same,kon,[5],161000 M⁻¹ s⁻¹
same,t½,[5],10 min
same,Kd,hRET.mFc [6],1.04 nM
same,koff,hRET.mFc [6],0.000312 s⁻¹
same,kon,hRET.mFc [6],300000 M⁻¹ s⁻¹
same,t½,hRET.mFc [6],37 min
same,% Max Blocking,hRET.mmh [7],72%
same,IC50,hRET.mmh [7],0.36 nM
"H4H8056P (antibody, human IgG4, V domains shown, human IgG4 Fc (H4H prefix)) VH: QVQLVESGGGVVQPGRSLRLSCAASGFTFRNYGMHWVRQAPGKGLEWVAVKRYDGSDEYFVDSVKGRFTISRDNSKNTLFLQMNSLRVDDTAVYYCARETPITGTTLDYWGQGTLVTVSS VL: DIQMTQSPSSLSASVGDRVTITCRTSQSITNYLNWYQQKPGKAPKLLIYAASRSQSGVPSRFSGSGSGTDFTLTISSLQPEDFATYYCQQSYSTPLTFGGGTKVEIK",Kd,hRET.mmh [1],2.56 nM
same,koff,hRET.mmh [1],0.000539 s⁻¹
same,kon,hRET.mmh [1],211000 M⁻¹ s⁻¹
same,t½,hRET.mmh [1],21 min
same,Kd,[2],2.69 nM
same,koff,[2],0.000583 s⁻¹
same,kon,[2],216000 M⁻¹ s⁻¹
same,t½,[2],20 min
same,Kd,hRET.mFc [3],1.47 nM
same,koff,hRET.mFc [3],0.000272 s⁻¹
same,kon,hRET.mFc [3],185000 M⁻¹ s⁻¹
same,t½,hRET.mFc [3],42 min
same,Kd,hRET.mmh [4],8.88 nM
same,koff,hRET.mmh [4],0.00289 s⁻¹
same,kon,hRET.mmh [4],326000 M⁻¹ s⁻¹
same,t½,hRET.mmh [4],4 min
same,Kd,[5],10.3 nM
same,koff,[5],0.00313 s⁻¹
same,kon,[5],303000 M⁻¹ s⁻¹
same,t½,[5],4 min
same,Kd,hRET.mFc [6],5.62 nM
same,koff,hRET.mFc [6],0.00128 s⁻¹
same,kon,hRET.mFc [6],227000 M⁻¹ s⁻¹
same,t½,hRET.mFc [6],9 min
same,% Max Blocking,hRET.mmh [7],73%
"H4H8058P (antibody, human IgG4, V domains shown, human IgG4 Fc (H4H prefix)) VH: QVQLVESGGGVGQPGRSLRLSCVASGFTFRNYGMHWVRQAPGKGLDWVAIIGYDGSKEYNVDSVKGRFTISRDNSKNTLYLQMNSLGAEDTAIYYCARESPITGTTFDYWGQGTLVTVSS VL: DIQMTQSPPSLSASVGDRVTITCRASQSIGNYLNWYQQKPGKAPKILIYAASRLQSGVPSRFSGSGSGTDFTLTISSLQPEDFATYYCQQSYSTPLTFGGGTKVEIK",Kd,hRET.mmh [1],2.09 nM
same,koff,hRET.mmh [1],0.000518 s⁻¹
same,kon,hRET.mmh [1],248000 M⁻¹ s⁻¹
same,t½,hRET.mmh [1],22 min
same,Kd,[2],2.35 nM
same,koff,[2],0.00054 s⁻¹
same,kon,[2],230000 M⁻¹ s⁻¹
same,t½,[2],21 min
same,Kd,hRET.mFc [3],1.1 nM
same,koff,hRET.mFc [3],0.000259 s⁻¹
same,kon,hRET.mFc [3],236000 M⁻¹ s⁻¹
same,t½,hRET.mFc [3],45 min
same,Kd,hRET.mmh [4],4.18 nM
same,koff,hRET.mmh [4],0.00221 s⁻¹
same,kon,hRET.mmh [4],528000 M⁻¹ s⁻¹
same,t½,hRET.mmh [4],5 min
same,Kd,[5],4.16 nM
same,koff,[5],0.00226 s⁻¹
same,kon,[5],543000 M⁻¹ s⁻¹
same,t½,[5],5 min
same,Kd,hRET.mFc [6],2.18 nM
same,koff,hRET.mFc [6],0.00121 s⁻¹
same,kon,hRET.mFc [6],552000 M⁻¹ s⁻¹
same,t½,hRET.mFc [6],10 min
same,% Max Blocking,hRET.mmh [7],93%
same,IC50,hRET.mmh [7],0.25 nM
"H4H8062P (antibody, human IgG4, V domains shown, human IgG4 Fc (H4H prefix)) VH: EVQLVESGGGLVQPGGSLRLSCSVSGFIFKNYAMRWVRQAPGKGLEWVSGISGSGGITYYADSVRGRVTISRDNSKNTLDLQMTNLRAEDTAVYYCAKAEYSSSGAYFDYWGQGTLVTVSS VL: DIQMTQSPSSLSASVGDRVTITCRASQSIHNYLNWYLQRPGKAPKLLVYAASSLQSGVPSRFSGRGSGTDFTLTISSLQPEDFATYYCQQSYSAPYSFGQGTKLEIK",Kd,hRET.mmh [1],0.733 nM
same,koff,hRET.mmh [1],0.00037 s⁻¹
same,kon,hRET.mmh [1],505000 M⁻¹ s⁻¹
same,t½,hRET.mmh [1],31 min
same,Kd,[2],1.46 nM
same,koff,[2],0.000733 s⁻¹
same,kon,[2],501000 M⁻¹ s⁻¹
same,t½,[2],16 min
same,Kd,hRET.mFc [3],0.49 nM
same,koff,hRET.mFc [3],0.00022 s⁻¹
same,kon,hRET.mFc [3],400000 M⁻¹ s⁻¹
same,t½,hRET.mFc [3],53 min
same,Kd,hRET.mmh [4],2.65 nM
same,koff,hRET.mmh [4],0.00181 s⁻¹
same,kon,hRET.mmh [4],682000 M⁻¹ s⁻¹
same,t½,hRET.mmh [4],6 min
same,Kd,[5],6.31 nM
same,koff,[5],0.00428 s⁻¹
same,kon,[5],678000 M⁻¹ s⁻¹
same,t½,[5],3 min
same,Kd,hRET.mFc [6],2.4 nM
same,koff,hRET.mFc [6],0.00088 s⁻¹
same,kon,hRET.mFc [6],366000 M⁻¹ s⁻¹
same,t½,hRET.mFc [6],13 min
same,% Max Blocking,hRET.mmh [7],97%
same,IC50,hRET.mmh [7],< 0.25 nM

# Source: patent US20220185900A1 (Regeneron, published 2022)
